Laboratory results reported in US10696642B2, “TEAD transcription factor autopalmitoylation inhibitors” (The General Hospital Corporation, priority 2015, dated 2020).

Substrate: CCCCCCCCCCCCCCCC(=O)SCCNC(=O)CCNC(=O)[C@H](O)C(C)(C)COP(=O)(O)OP(=O)(O)OC[C@H]1O[C@@H](n2cnc3c(N)ncnc32)[C@H](O)[C@@H]1OP(=O)(O)O
Test: TEAD2 YBD autopalmitoylation kinetics, palmitoyl-CoA dose-dependency
Type: biochemical, human
Details: other: recombinant TEAD2 YBD, alkyne palmitoyl-CoA, 3 min (FIG. 2J); pH 6.4
Experimental: Intact mass spectrometry analysis of the recombinant TEAD2-YBD was carried out. The peak corresponding to unmodified TEAD2 at 26497 Dalton. A small side peak was also observed at 26736 Dalton (FIG. 2E), consistent with a palmitate modification to the protein. […] Moreover, autopalmitoylation of TEAD2 YBD was confirmed by acyl-biotin exchange (ABE) assay, which converts S-palmitoylation to stable biotinylation for detection (FIG. 2G). With 1 μM of palmitoyl-CoA at neutral pH, TEAD2 YBD was autopalmitoylated within 2 min, and the palmitoylation levels reached saturation after 10 min (FIG. 2H). To determine dose-dependency of palmitoyl-CoA, recombinant TEAD2 YBD was incubated with various concentrations of alkyne palmitoyl-CoA for 3 min, and the reaction rate was determined by quantifying the intensities of streptavidin blots (FIG. 2I). […] The physiological palmitoyl-CoA concentrations range from 100 nM to 10 μM in cells.
Recombinant GST-TEAD2 or His6TEAD2 (500 ng) protein was incubated with the indicated concentrations of alkyne palmitoyl-CoA (Cayman Chemical) for 2 h or the indicated time in 50 mM MES, pH 6.4. […] Samples were analyzed by SDS-PAGE and streptavidin HRP. Bands intensity obtained from streptavidin blot were quantified using Image J (NIH) and the rate of palmitoylation in arbitrary unit was plotted against the concentration of palmitoyl-CoA. […]

B1: TEAD2 YBD (Homo sapiens) (protein)
chain: AWQARGLGTARLQLVEFSAFVEPPDAVDSYQRHLFVHISQHCPSPGAPPLESVDVRQIYDKFPEKKGGLRELYDRGPPHAFFLVKFWADLNWGPSGEEAGAGGSISSGGFYGVSSQYESLEHMTLTCSSKVCSFGKQVVEKVETERAQLEDGRFVYRLLRSPMCEYLVNFLHKLRQLPERYMMNSVLENFTILQVVTNRDTQELLLCTAYVFEVSTSERGAQHHIYRLVRD
notes: The cDNA encoding human TEAD2 (residues 217-447, TEAD2^217-447) was cloned into a pET29 vector; made in house; host or cells: E. coli BL21(DE3)-T1R
Question: How did the Km turn out when B1 was run?
Answer: 0.8 µM
